From patent publication US20060240516A1 (ECOLE NORMALE SUPERIEURE DE LYON, published 2006)

Columns and labels:
[1] = molecular target: T1, LexA alone (bait control) (UniProt P0A7C2 1-202); experiment: two-hybrid test in HeLa cells, SEAP reporter
T1 construct: also called pLex9
T1 sequence: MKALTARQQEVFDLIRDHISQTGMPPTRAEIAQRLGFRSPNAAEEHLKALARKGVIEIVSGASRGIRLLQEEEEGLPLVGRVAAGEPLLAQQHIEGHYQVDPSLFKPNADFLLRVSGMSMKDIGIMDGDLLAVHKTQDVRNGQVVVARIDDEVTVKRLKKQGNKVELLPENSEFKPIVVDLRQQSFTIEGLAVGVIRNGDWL

[2] = molecular target: T2, Rev protein of HIV-1 (HIV-1, UniProt P04618 1-116); experiment: gel retardation of the Rev-RRE RNA complex
T2 construct: also called pSG-Rev
T2 sequence: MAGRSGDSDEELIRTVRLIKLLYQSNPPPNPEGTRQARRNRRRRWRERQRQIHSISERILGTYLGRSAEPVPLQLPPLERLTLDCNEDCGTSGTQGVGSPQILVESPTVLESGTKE

[3] = molecular target: T3, GST-Rev fusion protein produced in bacteria (HIV-1, UniProt P04618 1-116); experiment: GST-Rev on glutathione-agarose column, elution with glutathione, immunoblot against FLAG
T3 construct: also called GXT-Rev
T3 sequence: T2 sequence

[4] = molecular target: T1, LexA alone (bait control); experiment: yeast two-hybrid, beta-galactosidase filter test; W = white after 6 h

ITRRIEMPGRDIPGVDGSILRGCWDPGRKKRRQRRRG (designed binder) [Mammalian prey FLAG-NLS-Vp16 activation domain-heptapeptide-Tat PTD, pSG-FNV-P-T9]
binding result [1]: no binding

B1: SHPT-8 produced in bacteria (N-terminal FLAG epitope), purified (designed binder)
chain: MSDQEAKPSTEDLGDKKEGEYIKLKVIGQDSSEIHFKVKMTTHLKKLKESYCQRQGVPMNSLRFLFEGQRIADNHTPKELGMEEEDVIEVYQEQTARPPNPKKEIELGGGGSFTMRGVDPGRKKRRQRRRG
notes: also called pFLAG-SUMO-1-P 8
binding result [2]: no binding | binding result [3]: no binding

GGGGSITRRIEMPGRDIPGVDGSILRGCWDPGRKKRRQRRRG (designed binder) [Yeast prey GAL4 activation domain-heptapeptide-Tat PTD, clone 9 (LexTat screening)]
binding result [4]: no binding
